The target of the experiment is RBX1 (human, UniProt P62877 1-108). The experiment can be described thus: cryo-EM structure.

B1: DDB1- and CUL4-associated factor 1 (DCAF1), full length, wild type (natural protein)
chain: not shown
For the molecule B1, the binding result was “binds”.

(Values after PMC8591539 (The EMBO Journal, 2021).)
